According to patent US20240400614A1, “CLEAVABLE PEPTIDES AND METHODS OF USE THEREOF” (Bright Peak Therapeutics AG, priority 2023, published 2024):
Square brackets hold non-standard residues; d marks the D form. Ends that are not written are not given here. Tyr(3-NO2) = N[C@@H](Cc1ccc(O)c([N+](=O)[O-])c1)C(=O)O; 2Abz = Nc1ccccc1C(=O)O

How the values were obtained:
Assay type in all cases: biochemical
uPA = uPA (Homo sapiens, UniProt P00749); experiment: FRET peptide cleavage efficiency with uPA
matriptase = target: T1, matriptase (Homo sapiens, UniProt Q9Y5Y6); experiment: FRET peptide cleavage efficiency with matriptase
T1 construct: purchased R&D Systems 3946-SEB
T1 sequence (Q9Y5Y6 615-855 limits assumed): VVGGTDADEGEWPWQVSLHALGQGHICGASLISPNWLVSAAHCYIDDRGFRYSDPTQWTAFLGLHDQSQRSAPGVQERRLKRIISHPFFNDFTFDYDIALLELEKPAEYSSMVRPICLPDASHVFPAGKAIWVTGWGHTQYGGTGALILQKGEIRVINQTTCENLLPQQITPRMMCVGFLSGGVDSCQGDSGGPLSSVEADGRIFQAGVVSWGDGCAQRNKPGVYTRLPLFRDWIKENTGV

MMP-2 = target: T2, MMP-2 (Homo sapiens, UniProt P08253); experiment: FRET peptide cleavage efficiency with MMP-2
T2 construct: purchased SIGMA PF023
T2 sequence (P08253 110-660): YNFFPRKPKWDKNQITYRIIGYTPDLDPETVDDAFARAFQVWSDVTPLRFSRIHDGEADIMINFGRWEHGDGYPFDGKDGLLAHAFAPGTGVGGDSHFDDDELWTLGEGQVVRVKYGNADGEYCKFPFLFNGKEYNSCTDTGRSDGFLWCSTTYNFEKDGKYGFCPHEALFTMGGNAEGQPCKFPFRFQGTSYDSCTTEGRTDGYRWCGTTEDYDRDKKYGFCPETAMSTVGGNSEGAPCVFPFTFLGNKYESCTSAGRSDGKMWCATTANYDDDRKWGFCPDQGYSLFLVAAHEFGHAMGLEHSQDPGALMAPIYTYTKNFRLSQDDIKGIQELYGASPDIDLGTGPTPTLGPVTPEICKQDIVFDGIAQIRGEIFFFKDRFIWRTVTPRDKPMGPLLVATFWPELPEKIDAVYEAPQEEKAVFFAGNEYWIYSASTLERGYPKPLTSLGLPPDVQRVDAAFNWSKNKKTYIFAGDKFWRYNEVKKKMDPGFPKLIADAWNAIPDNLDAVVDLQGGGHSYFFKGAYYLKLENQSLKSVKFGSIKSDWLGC

MMP-7 = target: T3, MMP-7 (Homo sapiens, UniProt P09237); experiment: FRET peptide cleavage efficiency with MMP-7 (standard pH 7.5; also pH 6.5)
T3 construct: purchased SIGMA CC1059
T3 sequence (P09237 95-267): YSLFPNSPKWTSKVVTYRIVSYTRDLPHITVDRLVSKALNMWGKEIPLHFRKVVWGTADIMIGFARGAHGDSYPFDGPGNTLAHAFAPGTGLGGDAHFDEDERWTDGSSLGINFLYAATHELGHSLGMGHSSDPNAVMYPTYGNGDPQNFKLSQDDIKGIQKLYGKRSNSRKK

MMP-9 = target: T4, MMP-9 (Homo sapiens, UniProt P14780); experiment: FRET peptide cleavage efficiency with MMP-9 (standard pH 7.5; also pH 6.5)
T4 construct: purchased SIGMA PF024
T4 sequence (P14780 94-707): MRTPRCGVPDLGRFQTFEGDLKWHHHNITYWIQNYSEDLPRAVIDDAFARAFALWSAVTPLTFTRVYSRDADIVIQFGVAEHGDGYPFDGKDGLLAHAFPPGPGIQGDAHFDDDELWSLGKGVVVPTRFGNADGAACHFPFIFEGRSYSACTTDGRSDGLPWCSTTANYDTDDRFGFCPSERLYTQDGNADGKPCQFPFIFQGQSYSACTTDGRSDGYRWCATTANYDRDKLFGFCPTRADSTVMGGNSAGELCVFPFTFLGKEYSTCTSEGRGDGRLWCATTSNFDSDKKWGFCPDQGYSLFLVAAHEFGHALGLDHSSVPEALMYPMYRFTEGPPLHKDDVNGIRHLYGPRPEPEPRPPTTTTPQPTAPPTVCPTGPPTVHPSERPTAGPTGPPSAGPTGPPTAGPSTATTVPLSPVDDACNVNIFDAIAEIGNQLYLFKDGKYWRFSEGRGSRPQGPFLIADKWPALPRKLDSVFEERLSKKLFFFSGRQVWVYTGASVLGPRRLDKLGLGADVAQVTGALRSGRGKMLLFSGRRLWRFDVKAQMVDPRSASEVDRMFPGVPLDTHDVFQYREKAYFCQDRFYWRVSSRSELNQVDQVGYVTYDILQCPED

[1] = 200 uM linker, 1 ug/ml protease, 37° C., buffer A pH 8.5
[2] = 200 uM linker, 1 ug/ml protease, 37° C., buffer B pH 9.0
[3] = t = 15 min, standard conditions (Table 8)
[4] = t = 60 min, standard conditions (Table 8)
[5] = t = 120 min, standard conditions (Table 8)

Sequence: RGRRPLGLAGGSG ([2Abz]RGRRPLGLAGGSG[Tyr(3-NO2)]-NH2) [LNK051]
- % cleavage uPA t = 15 min (uPA; t = 15 min, 200 uM linker, 1 ug/ml protease, 37° C., buffer A pH 8.5): 0%
- % cleavage uPA t = 60 min (uPA; [1]): 0%
- % cleavage uPA t = 120 min (uPA; [1]): 0%
- % cleavage Matriptase t = 15 min (matriptase; [2]): 22%
- % cleavage Matriptase t = 60 min (matriptase; [2]): 72%
- % cleavage Matriptase t = 120 min (matriptase; [2]): 100%
- % cleavage MMP-2 t = 15 min (MMP-2; t = 15 min (Table 9)): 73%
- % cleavage MMP-2 t = 15 min (MMP-2; t = 15 min, 200 uM linker, 1 ug/ml protease, 37° C., buffer C pH 7.5): 73%
- % cleavage MMP-2 t = 60 min (MMP-2; t = 60 min (Table 9)): 100%
- % cleavage MMP-2 t = 60 min (MMP-2; t = 60 min, 200 uM linker, 1 ug/ml protease, 37° C., buffer C pH 7.5): 100%
- % cleavage MMP-2 t = 120 min (MMP-2; t = 120 min (Table 9)): 100%
- % cleavage MMP-2 t = 120 min (MMP-2; t = 120 min, 200 uM linker, 1 ug/ml protease, 37° C., buffer C pH 7.5): 100%
- % cleavage MMP-7 t = 15 min (MMP-7; t = 15 min (Table 9)): 3%
- % cleavage MMP-7 t = 60 min (MMP-7; t = 60 min (Table 9)): 8%
- % cleavage MMP-7 t = 120 min (MMP-7; t = 120 min (Table 9)): 14%
- % cleavage MMP-9 t = 15 min (MMP-9; t = 15 min (Table 9)): 62%
- % cleavage MMP-9 t = 60 min (MMP-9; t = 60 min (Table 9)): 100%
- % cleavage MMP-9 t = 120 min (MMP-9; t = 120 min (Table 9)): 100%

Sequence: RGRKSPQPLVD ([2Abz]RGRKSPQPLVD[Tyr(3-NO2)]-NH2) [LNK040]
- % vcleavage uPA t = 15 min (uPA; [3]): 0%
- % cleavage uPA t = 60 min (uPA; standard conditions (Table 8)): 0%
- % cleavage uPA t = 120 min (uPA; standard conditions (Table 8)): 0%
- % cleavage Matriptase t = 15 min (matriptase; standard conditions (Table 8)): 100%
- % cleavage Matriptase t = 60 min (matriptase; standard conditions (Table 8)): 100%
- % cleavage Matriptase t = 120 min (matriptase; standard conditions (Table 8)): 100%
- % cleavage MMP-2 t = 15 min (MMP-2; t = 15 min (Table 9)): 8%
- % cleavage MMP-2 t = 60 min (MMP-2; t = 60 min (Table 9)): 28%
- % cleavage MMP-2 t = 60 min (MMP-2; [4]): 28%
- % cleavage MMP-2 t = 120 min (MMP-2; t = 120 min (Table 9)): 47%
- % cleavage MMP-2 t = 120 min (MMP-2; [5]): 47%
- % cleavage MMP-7 t = 15 min (MMP-7; t = 15 min (Table 9)): 29%
- % cleavage MMP-7 t = 15 min (MMP-7; [3]): 29%
- % cleavage MMP-7 t = 60 min (MMP-7; t = 60 min (Table 9)): 74%
- % cleavage MMP-7 t = 60 min (MMP-7; [4]): 74%
- % cleavage MMP-7 t = 120 min (MMP-7; t = 120 min (Table 9)): 93%
- % cleavage MMP-7 t = 120 min (MMP-7; [5]): 93%
- % cleavage MMP-9 t = 15 min (MMP-9; t = 15 min (Table 9)): 25%
- % cleavage MMP-9 t = 15 min (MMP-9; [3]): 25%
- % cleavage MMP-9 t = 60 min (MMP-9; t = 60 min (Table 9)): 69%
- % cleavage MMP-9 t = 60 min (MMP-9; [4]): 69%
- % cleavage MMP-9 t = 120 min (MMP-9; t = 120 min (Table 9)): 89%
- % cleavage MMP-9 t = 120 min (MMP-9; [5]): 89%

Sequence: SGRVQPLVD (not fully specified (N-terminus, C-terminus)) [LNK047]
- % vcleavage uPA t = 15 min (uPA; [3]): 1%
- % cleavage uPA t = 60 min (uPA; standard conditions (Table 8)): 1%
- % cleavage uPA t = 120 min (uPA; standard conditions (Table 8)): 2%
- % cleavage Matriptase t = 15 min (matriptase; standard conditions (Table 8)): 4%
- % cleavage Matriptase t = 60 min (matriptase; standard conditions (Table 8)): 17%
- % cleavage Matriptase t = 120 min (matriptase; standard conditions (Table 8)): 33%
- % cleavage MMP-2 t = 15 min (MMP-2; t = 15 min (Table 9)): 2%
- % cleavage MMP-2 t = 60 min (MMP-2; t = 60 min (Table 9)): 5%
- % cleavage MMP-2 t = 60 min (MMP-2; [4]): 5%
- % cleavage MMP-2 t = 120 min (MMP-2; t = 120 min (Table 9)): 9%
- % cleavage MMP-2 t = 120 min (MMP-2; [5]): 9%
- % cleavage MMP-7 t = 15 min (MMP-7; t = 15 min (Table 9)): 20%
- % cleavage MMP-7 t = 15 min (MMP-7; [3]): 20%
- % cleavage MMP-7 t = 60 min (MMP-7; t = 60 min (Table 9)): 65%
- % cleavage MMP-7 t = 60 min (MMP-7; [4]): 65%
- % cleavage MMP-7 t = 120 min (MMP-7; t = 120 min (Table 9)): 88%
- % cleavage MMP-7 t = 120 min (MMP-7; [5]): 88%
- % cleavage MMP-9 t = 15 min (MMP-9; t = 15 min (Table 9)): 1%
- % cleavage MMP-9 t = 15 min (MMP-9; [3]): 1%
- % cleavage MMP-9 t = 60 min (MMP-9; t = 60 min (Table 9)): 2%
- % cleavage MMP-9 t = 60 min (MMP-9; [4]): 2%
- % cleavage MMP-9 t = 120 min (MMP-9; t = 120 min (Table 9)): 4%
- % cleavage MMP-9 t = 120 min (MMP-9; [5]): 4%
